{
  "source": "patent US20210380673A1",
  "assay_in_all_cases": "cell-based or functional assay",
  "key": {"[1]": {"target": "human CCR6 (human) (UniProt P51684)", "sequence (P51684 whole entry)": "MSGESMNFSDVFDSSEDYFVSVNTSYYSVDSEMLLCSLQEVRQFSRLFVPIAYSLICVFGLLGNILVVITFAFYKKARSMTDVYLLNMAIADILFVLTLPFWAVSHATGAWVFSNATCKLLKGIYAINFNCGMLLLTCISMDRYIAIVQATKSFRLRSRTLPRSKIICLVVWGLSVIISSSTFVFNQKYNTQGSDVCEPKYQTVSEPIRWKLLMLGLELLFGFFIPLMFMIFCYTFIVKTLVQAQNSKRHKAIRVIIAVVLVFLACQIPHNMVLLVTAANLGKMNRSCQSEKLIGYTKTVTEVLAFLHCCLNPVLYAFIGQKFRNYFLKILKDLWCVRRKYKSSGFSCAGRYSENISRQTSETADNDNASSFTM"}, "[2]": {"target": "recombinant human CCL20 (human) (UniProt P78556)", "sequence (P78556 27-96 limits assumed)": "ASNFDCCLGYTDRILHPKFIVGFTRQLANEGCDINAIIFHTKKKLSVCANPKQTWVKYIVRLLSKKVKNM"}, "[3]": {"target": "recombinant mouse CCL20 (mouse) (UniProt O89093)", "sequence (O89093 28-97 limits assumed)": "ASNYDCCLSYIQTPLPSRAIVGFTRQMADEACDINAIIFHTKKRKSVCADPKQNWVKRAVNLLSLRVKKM"}},
  "data": [
    {"substance": "recombinant human CCL20 (from UniProt P78556 27-96) (ligand)", "values": [
      {"measurement": "expression of NANOG, BMI1, OCT3/4 and SOX2 in CCR6+ against CCR6- NCIH508 cells after 48 hours with 100 pg/mL CCL20", "setting": "[1]", "result": 2, "unit": "fold"}
    ]},
    {"substance": "neutralizing monoclonal antibody against human CCL20 (clone 67310; R&D Systems)", "values": [
      {"measurement": "IC50, beta-arrestin translocation assay (CHO-K1 cells overexpressing human CCR6, stimulated with 6 nM CCL20)", "setting": "[2]", "result": 2.7, "unit": "nM"},
      {"measurement": "IC50, cAMP assay (Ad293 cells overexpressing human CCR6, stimulated with 1 nM CCL20)", "setting": "[2]", "result": 0.8, "unit": "nM"}
    ]},
    {"substance": "anti-mouse CCL20 monoclonal antibody (clone 114908; R&D Systems)", "values": [
      {"measurement": "IC50, beta-arrestin translocation assay (CHO-K1 cells overexpressing mouse CCR6, stimulated with 1.2 nM mouse CCL20)", "setting": "[3]", "result": 14, "unit": "nM"}
    ]}
  ]
}
